Laboratory results taken from the DeepSol protein solubility set.

Assay: soluble on expression in E. coli; label from the status in PepcDB or PDB records

Sequence	soluble on expression in E. coli
MAKLVTENISKRFKNQDVLKHINITLENNEVYGLLGINGAGKTTLMKIICGILQQDSGEIKLDNRPMTRNDLHKVGSLIETPATYNHLSAQDNLKIVCLNESVDFSEINSVLSLVNLNVDKKKKVKDFSLGMKQRLGIAMALIKKPEILVLDEPSNGLDPYGIQELRELLKLLTEQGTSIIISSHILSEIQVLADHIGIIHEGELKYQQRNNKDENLEEIFFKITKGDYK	not soluble
VNFDDIASSENLLHLTANRPKMPGRRLPG	soluble
MDNPEPARIVRLMEHRADIAIVGGGLNGPALALALAQSGQSVVLVDALPDPLRTDAEFDGRAYALALASQRLLAAVGVWDHVAEAAQPMLEIKVSDGHAGAGPSPFFLHFDHAEIEEGPMGYMVEDRYLRRALLAAMEDAPRITRLNGAAVTAQQTDGTGVVLTLADGSHLRAGLVVGCDGRKSGTATRAGIKRTGWDYGQTALVCAIAHERPHHGIAHQFFMPPGPLAILPLPGNRSSIVWSERTEAAARINALPEAEYLEILRPRFGDFLGEIRLEGARFTYPLNLTVANAFVAERLALVGDAAHGMHPIAGQGLNAGLRDVGALAEVLILAARRGEDIGAAPVLERYQQWRRFDTATLALATDAFNRLFSNDNPLLRLGRDVGMGVIGAFPGLRRGFVREATGLTGDLPKLMQGRAILEHHHHHH	not soluble
MVERLEALFDALAELTGQRNAIDAKIVQIVAEIDRDGLWGATGARSISALVAWKTGASERNAKAIAAVAHRAEEFPRCVQGLGAGRLSLDQVGVIAEGAADGSDEHYAALASVATVSQLRKAISLEPKPEPEPKPDPRRSIRTNPGDGYTTYHITLPRLEAAKFDTALEASHEGLIARWEREQDPGDPAVPMPDLVDAFMALVETGWDREATRRPHGQHTAVAVHVDLKSKVAALHLGPLLGDDERRLLTCDATCEVWFELRGRVIGTGRATRTVNRRLRRALEHRDRCCVVPGCSATRGLHAHHLVHWEDGGLTEMANLVLLCPYHHRAHHRGLITITGPADQLTVTDDRGRLLTNQSLARTPLEHHHHHH	soluble
MRNLVKYAGIGLLVMGLAACDNNDTKASAESAAAESQASGQPISLMDGKLSFSLPADMTDQSGKLGTQANNMHVYSDPTGQKAVIVIVGDNTDEALPVLANRLLEQQRSRDPQLQVVTNKSIELKGHTLQQLDSIISAKGQTAYSSIVLGKVDNQLLTIQVTLPADNQQKAQTTAENIINTLVIK	not soluble
GGVVLRVVTVLEEPFVMVSENVLGKPKKYQGFSIDVLDALSNYLGFNYEIYVAPDHKYGSPQEDGTWNGLVGELVFKRADIGISALTITPDRENVVDFTTRYMDYSVGVLLRRGTSIQSLQDLSKQTDIPYGTVLDSAVYQHVRMKGLNPFERDSMYSQMWRMINRSNGSENNVLESQAGIQKVKYGNYAFVWDAAVLEYVAINDPDCSFYTVGNTVADRGYGIALQHGSPYRDVFSQRILELQQSGDMDILKHKWWPKNGQCDL	soluble
MSLNGKNLTLNVPVTAAVPGARGIKADCITDGACTESSTYFQKSSNAATGSPYMFTIDMQKEAVISEINLSTRLVNGSEAAYKYTIEGSRDGKSYKMLVDGKLNWQVGFLILNIEDPSLYRYLRLRVYGVVNVHKNNSAMWADGIYEFAAYGKEGHHHHHH	not soluble
GPGSMTSLNTELALAKRFHMLSKNYSNRPVIARRNTLPTLVRFIRSNDRETRHYSLSALLLLAQHEENVELLCLERGLVPGVYAVYKDADYDDPQLREIADQILNCLEPVLQGRDPRKASQTSVTPVGSSSDAVDSDPLNDSFSPSRRARAGRVLRGVGSDAIHTVLLDIPALDPNGGDNIEAIEDIFQTTRGVLSYSIFVENRQARLFVTCATQVVQQVLSDSGFESVVVRDDVVNQEMFGGGADGSAGLNSGGNRSNTSYYDGGSPQHRPSYLQSVANSIYQSALVLGGGSRNNDTLSARVNEQRTREQEGESTFGYISKTLSKWW	not soluble
MKTYNIPVEATLEVIGGKWKVVILCHLKKDKKRTCELKQLMSGITQKMLTQQLRELEEDGVIERKVYNQVPPKVEYSLTDYGHSLDSILDTLCNWGENHLEKNGNTSMLITAAE	not soluble
MSLNKYLEQLVLLSKIDQEIDSYEPKIDSINKTLKDAELKIEKINADLEKIDEEIKDIENQKIQNNAHISEFSAKIKDLSKKSGVVKTEKEANALKIEEDIAKEQLDAANDEIVRLDKILENKETYKKELEEEKIKQEQNINEIRVSIKSEMEVLEKDRMSVYDKKTKLVSEMNQKVLSFYEKIRKWAKNTAVVPVKKQACYGCFMKIYDKTYLSVVKGEEIVTCPHCGRILYKEQEEQNEGHHHHHH	soluble
